# T1: CWC15[80–229] (human, UniProt Q9P013 80-229)
# T1 construct: Tag cleaved off by HRV 3C protease for gel filtration, crosslinking and HDX; source: E. coli BL21 Rosetta (DE3)pLysS, purified (Glutathione-Sepharose 4B, HRV 3C cleavage, Resource Q)
# T1 sequence (looked up): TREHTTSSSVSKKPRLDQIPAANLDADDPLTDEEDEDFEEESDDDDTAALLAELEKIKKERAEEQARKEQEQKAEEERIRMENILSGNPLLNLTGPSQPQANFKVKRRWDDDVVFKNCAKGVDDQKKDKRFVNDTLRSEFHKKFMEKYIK
# T2: full-length recombinant His tagged CTNNBL1 (human, UniProt Q8WYA6 1-563)
# T2 construct: Homotrimer when alone in solution by SEC-MALS (186 kDa); also called His-CTNNBL1; full-length CTNNBL1; source: E. coli BL21 Rosetta (DE3)pLysS, purified (Ni-NTA, Resource Q)
# T2 sequence (looked up): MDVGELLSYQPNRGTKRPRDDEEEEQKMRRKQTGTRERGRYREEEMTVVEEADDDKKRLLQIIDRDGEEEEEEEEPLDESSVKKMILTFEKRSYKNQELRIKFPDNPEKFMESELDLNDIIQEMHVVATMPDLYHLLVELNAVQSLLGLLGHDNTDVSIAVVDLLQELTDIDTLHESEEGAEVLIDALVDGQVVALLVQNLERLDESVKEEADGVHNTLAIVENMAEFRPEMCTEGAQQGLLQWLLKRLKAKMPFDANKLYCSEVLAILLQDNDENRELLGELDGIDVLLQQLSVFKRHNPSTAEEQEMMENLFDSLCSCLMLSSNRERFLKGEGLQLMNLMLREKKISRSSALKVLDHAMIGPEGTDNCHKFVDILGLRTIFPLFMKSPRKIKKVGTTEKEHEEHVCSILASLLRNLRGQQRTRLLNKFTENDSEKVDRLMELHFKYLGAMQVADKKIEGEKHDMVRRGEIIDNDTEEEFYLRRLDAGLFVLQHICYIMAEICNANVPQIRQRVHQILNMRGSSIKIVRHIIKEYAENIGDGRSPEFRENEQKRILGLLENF
# B1: His-CTNNBL1[77–563] (domain or fragment, human, UniProt Q8WYA6 77-563, looked up)
# chain: LDESSVKKMILTFEKRSYKNQELRIKFPDNPEKFMESELDLNDIIQEMHVVATMPDLYHLLVELNAVQSLLGLLGHDNTDVSIAVVDLLQELTDIDTLHESEEGAEVLIDALVDGQVVALLVQNLERLDESVKEEADGVHNTLAIVENMAEFRPEMCTEGAQQGLLQWLLKRLKAKMPFDANKLYCSEVLAILLQDNDENRELLGELDGIDVLLQQLSVFKRHNPSTAEEQEMMENLFDSLCSCLMLSSNRERFLKGEGLQLMNLMLREKKISRSSALKVLDHAMIGPEGTDNCHKFVDILGLRTIFPLFMKSPRKIKKVGTTEKEHEEHVCSILASLLRNLRGQQRTRLLNKFTENDSEKVDRLMELHFKYLGAMQVADKKIEGEKHDMVRRGEIIDNDTEEEFYLRRLDAGLFVLQHICYIMAEICNANVPQIRQRVHQILNMRGSSIKIVRHIIKEYAENIGDGRSPEFRENEQKRILGLLENF
# notes: Homotrimer when alone in solution by SEC-MALS (165 kDa); also called N-terminal truncation mutant of CTNNBL1; source: E. coli BL21 Rosetta (DE3)pLysS, purified (Ni-NTA, Resource Q)
# B2: CDC5L[1–195] (domain or fragment, human, UniProt Q99459 1-195, looked up)
# chain: MPRIMIKGGVWRNTEDEILKAAVMKYGKNQWSRIASLLHRKSAKQCKARWYEWLDPSIKKTEWSREEEEKLLHLAKLMPTQWRTIAPIIGRTAAQCLEHYEFLLDKAAQRDNEEETTDDPRKLKPGEIDPNPETKPARPDPIDMDEDELEMLSEARARLANTQGKKAKRKAREKQLEEARRLAALQKRRELRAAG
# notes: Tag cleaved off by TEV protease for gel filtration, crosslinking and HDX; source: E. coli BL21 Rosetta (DE3)pLysS, purified (amylose resin, TEV cleavage, Resource S)
# B3: full-length GST-CWC15 (natural protein, human, UniProt Q9P013 1-229, looked up)
# chain: MTTAARPTFEPARGGRGKGEGDLSQLSKQYSSRDLPSHTKIKYRQTTQDAPEEVRNRDFRRELEERERAAAREKNRDRPTREHTTSSSVSKKPRLDQIPAANLDADDPLTDEEDEDFEEESDDDDTAALLAELEKIKKERAEEQARKEQEQKAEEERIRMENILSGNPLLNLTGPSQPQANFKVKRRWDDDVVFKNCAKGVDDQKKDKRFVNDTLRSEFHKKFMEKYIK
# notes: source: E. coli BL21 Rosetta (DE3)pLysS, purified (Glutathione-Sepharose 4B)
# Legend:
# [1] = target: the molecule itself; experiment: SEC-MALS; CTNNBL1 (full length or [77–563]) alone; also in high salt buffer (0.5 M NaCl) or with CWC15[80–229] added; Supplementary Figure S7
# [2] = target: T1, CWC15[80–229]; experiment: SEC-MALS; mixture of purified His-CTNNBL1[77–563], CDC5L[1–195] and CWC15[80–229]; settings: both partners purified
# [3] = target: T2, full-length recombinant His tagged …; experiment: pull-down; His-CTNNBL1 (full length or [77–563]) as bait on Ni-NTA resin; 10–20 μg of each purified protein in pull down buffer, 1 h at 4°C; eluates on SDS-PAGE, Instant Blue; settings: both partners purified
binder,measurement,setting,value
B1,stoichiometry N,[1],3
B2,stoichiometry N,[2],1
B3,binding result,[3],binds

# — PMC4538830, “CTNNBL1 facilitates the association of CWC15 with CDC5L and is required to maintain the abundance of the Prp19 spliceosomal complex” (Nucleic Acids Research, 2015)
